Test results taken from patent publication US20170313756A1.
Read-outs that look alike come from different tables or passages of the source. [ ]: non-standard residue; d: D form. The star is where a group is joined. dCha = N[C@H](CC1CCCCC1)C(=O)O; NH(CH2)3Ph = c1ccc(CCCN*)cc1

Assays:
[1] = molecular target: melanocortin 1 receptor (MC1R) (UniProt Q01726); test: 125I-NDP-MSH competition, HEK293 membranes
[2] = molecular target: mouse MC1R (on murine B16-F1 melanoma cells) (mouse) (UniProt Q01727); test: cell-based or functional assay
mouse MC1R (on murine B16-F1 melanoma cells) (mouse), sequence (Q01727 whole entry): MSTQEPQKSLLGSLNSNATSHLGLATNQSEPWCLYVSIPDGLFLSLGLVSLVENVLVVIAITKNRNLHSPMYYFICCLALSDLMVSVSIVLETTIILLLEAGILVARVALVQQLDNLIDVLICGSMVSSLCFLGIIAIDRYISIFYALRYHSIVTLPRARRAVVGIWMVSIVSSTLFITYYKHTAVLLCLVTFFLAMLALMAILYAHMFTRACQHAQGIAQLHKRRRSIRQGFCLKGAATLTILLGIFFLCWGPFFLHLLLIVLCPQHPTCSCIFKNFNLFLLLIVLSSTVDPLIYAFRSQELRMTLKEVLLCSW

[3] = molecular target: melanocortin 3 receptor (MC3R) (UniProt P41968); test: 125I-NDP-MSH competition, HEK293 membranes
melanocortin 3 receptor (MC3R), sequence (P41968 whole entry): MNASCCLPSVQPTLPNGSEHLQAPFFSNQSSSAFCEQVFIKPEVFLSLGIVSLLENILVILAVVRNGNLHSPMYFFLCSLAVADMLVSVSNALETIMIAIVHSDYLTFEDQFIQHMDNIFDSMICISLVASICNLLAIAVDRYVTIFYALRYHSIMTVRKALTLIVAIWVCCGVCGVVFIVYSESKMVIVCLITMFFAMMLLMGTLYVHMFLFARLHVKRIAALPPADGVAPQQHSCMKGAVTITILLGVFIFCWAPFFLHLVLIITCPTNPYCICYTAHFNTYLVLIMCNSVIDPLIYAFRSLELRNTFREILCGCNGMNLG

[4] = molecular target: melanocortin 5 receptor (MC5R) (UniProt P33032); test: 125I-NDP-MSH competition, HEK293 membranes
melanocortin 5 receptor (MC5R), sequence (P33032 whole entry): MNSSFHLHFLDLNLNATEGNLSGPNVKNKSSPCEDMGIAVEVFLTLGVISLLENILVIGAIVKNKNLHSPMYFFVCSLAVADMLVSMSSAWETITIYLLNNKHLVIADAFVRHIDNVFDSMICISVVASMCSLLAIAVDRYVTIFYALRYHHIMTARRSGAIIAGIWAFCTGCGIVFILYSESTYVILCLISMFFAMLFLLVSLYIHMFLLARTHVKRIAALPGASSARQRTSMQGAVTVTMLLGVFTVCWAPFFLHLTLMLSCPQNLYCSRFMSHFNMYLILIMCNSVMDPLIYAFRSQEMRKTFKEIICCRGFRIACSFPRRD

[5] = molecular target: melanocortin 4 receptor (MC4R) (UniProt P32245); test: 125I-NDP-MSH competition, HEK293 membranes
melanocortin 4 receptor (MC4R), sequence (P32245 whole entry): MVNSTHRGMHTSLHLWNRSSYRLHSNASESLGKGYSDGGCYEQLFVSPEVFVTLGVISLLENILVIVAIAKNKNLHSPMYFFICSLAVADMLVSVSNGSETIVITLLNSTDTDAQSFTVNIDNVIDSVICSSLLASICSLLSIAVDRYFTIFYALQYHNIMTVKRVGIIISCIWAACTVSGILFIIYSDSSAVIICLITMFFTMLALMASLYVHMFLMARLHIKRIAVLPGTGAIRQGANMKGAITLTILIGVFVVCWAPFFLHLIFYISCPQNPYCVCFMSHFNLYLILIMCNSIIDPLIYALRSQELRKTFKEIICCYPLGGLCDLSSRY

[6] = molecular target: melanocortin 1 receptor (MC1R) (UniProt Q01726); test: 125I-NDP-MSH competition, HEK293 membranes; remark: listed apart in the source

melanocortin 1 receptor (MC1R), sequence (Q01726 whole entry): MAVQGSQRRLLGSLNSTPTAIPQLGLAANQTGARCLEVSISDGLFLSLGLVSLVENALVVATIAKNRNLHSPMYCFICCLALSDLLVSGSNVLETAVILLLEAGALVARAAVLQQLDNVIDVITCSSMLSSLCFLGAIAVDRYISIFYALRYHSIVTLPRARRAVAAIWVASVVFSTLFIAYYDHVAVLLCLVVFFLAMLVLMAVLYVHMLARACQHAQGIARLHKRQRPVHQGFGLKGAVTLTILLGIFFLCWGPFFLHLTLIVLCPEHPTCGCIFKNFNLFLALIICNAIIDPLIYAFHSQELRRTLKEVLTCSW

B1: peptide 870 (peptide)
peptide: VPKGWRWHEMSYS
modifications: N-terminal acetyl (Ac); C-terminal amide; D-isomers at all residues except Gly 4
Question: With B1 as the binder, how does the Ki [1] read?
Answer: 2500 nM

B2: RI α-MSH analog 891 (peptide)
peptide: Ac-[dV][dP][dK]G[dW][dR][dCha][dH][dS][dI][dI][dS][dS]-NH2
SMILES: CC[C@@H](C)[C@@H](NC(=O)[C@@H](CO)NC(=O)[C@@H](Cc1c[nH]cn1)NC(=O)[C@@H](CC1CCCCC1)NC(=O)[C@@H](CCCNC(=N)N)NC(=O)[C@@H](Cc1c[nH]c2ccccc12)NC(=O)CNC(=O)[C@@H](CCCCN)NC(=O)[C@H]1CCCN1C(=O)[C@H](NC(C)=O)C(C)C)C(=O)N[C@@H](C(=O)N[C@H](CO)C(=O)N[C@H](CO)C(N)=O)[C@H](C)CC
Question: With B2 as the binder, how does the EC50, cAMP in B16-F1 cells [2] read?
Answer: 0.081 µM

Question: What about the Ki [3] of the same binder?
Answer: 8 µM

Question: And the Ki [1]?
Answer: 0.43 nM

Question: And the Ki [4]?
Answer: 2.5 µM

Question: What about the Ki [5] of the same binder?
Answer: 3.2 µM

Question: With Ac-[dW][dR]F[dH]-NH2 [peptide 883] as the binder, how does the Ki [6] read?
Answer: > 30000 nM

B3: peptide 871 (peptide)
peptide: VPKGWRXHEMSYS
modifications: N-terminal acetyl (Ac); C-terminal amide; 4-Nitro-D-Phe at 7; D-isomers at all residues except Gly 4
Question: How did the Ki [1] turn out when B3 was run?
Answer: 324 nM

B4: peptide 859 (peptide)
peptide: VPKGXRFHEMSYS
modifications: N-terminal acetyl (Ac); C-terminal amide; 3-benzothienyl-D-Alanine at 5; D-isomers at all residues except Gly 4
Question: Which Ki [1] does the source give for B4 here?
Answer: 206 nM

B5: peptide 868 (peptide)
peptide: VPKGWRXHEMSYS
modifications: N-terminal acetyl (Ac); C-terminal amide; 2-thienyl-D-Alanine at 7; D-isomers at all residues except Gly 4
Question: For B5, which Ki [1] is on record?
Answer: 5.4 nM

B6: peptide 865 (peptide)
peptide: VPKGWHFHEMSYS
modifications: N-terminal acetyl (Ac); C-terminal amide; D-isomers at all residues except Gly 4
Question: B6 was tested. Which Ki [1] did it give?
Answer: 2300 nM

B7: peptide 861 (peptide)
peptide: VPKGXRFHEMSYS
modifications: N-terminal acetyl (Ac); C-terminal amide; 5-methoxy-D-Trp at 5; D-isomers at all residues except Gly 4
Question: For B7, which Ki [1] is on record?
Answer: 75 nM

B8: peptide 808 (peptide)
peptide: VPKGWRFHAMSYS
modifications: N-terminal acetyl (Ac); C-terminal amide; D-isomers at all residues except Gly 4
Question: B8 was tested. Which Ki [1] did it give?
Answer: 2.5 nM

B9: peptide 811 (peptide)
peptide: VPKGWAFHEMSYS
modifications: N-terminal acetyl (Ac); C-terminal amide; D-isomers at all residues except Gly 4
Question: B9 was tested. Which Ki [1] did it give?
Answer: 13000 nM

B10: peptide 857 (peptide)
peptide: VPXGWRFHEMSYS
modifications: N-terminal acetyl (Ac); C-terminal amide; D-Ornithine at 3; D-isomers at all residues except Gly 4
Question: Which Ki [1] does the source give for B10 here?
Answer: 3 nM

B11: peptide 880 (peptide)
peptide: Ac-[dV][dP][dK]G[dW][dR]F[dH][dS][dI][dI][dS][dS]-NH2
SMILES: CC[C@@H](C)[C@@H](NC(=O)[C@@H](CO)NC(=O)[C@@H](Cc1c[nH]cn1)NC(=O)[C@H](Cc1ccccc1)NC(=O)[C@@H](CCCNC(=N)N)NC(=O)[C@@H](Cc1c[nH]c2ccccc12)NC(=O)CNC(=O)[C@@H](CCCCN)NC(=O)[C@H]1CCCN1C(=O)[C@H](NC(C)=O)C(C)C)C(=O)N[C@@H](C(=O)N[C@H](CO)C(=O)N[C@H](CO)C(N)=O)[C@H](C)CC
Question: With B11 as the binder, how does the Ki [3] read?
Answer: 18 µM

Question: And the Ki [1]?
Answer: 1.8 nM

Question: What about the Ki [5] of the same binder?
Answer: 10 µM

B12: peptide 878 (peptide)
peptide: VPKGWRFHEXSYS
modifications: N-terminal acetyl (Ac); C-terminal amide; D-buthionine at 10; D-isomers at all residues except Gly 4
Question: Which results are given for B12?
Answer: Ki [3]: 40 µM; Ki [1]: 2.3 nM; Ki [4]: 30 µM

Question: Which results are given for Ac-[dW][dR]F[dH]-{1,6‑diaminohexane-stearyl} [peptide 882]?
Answer: fold improvement of binding over wrFh [6]: > 250 fold; Ki [1]: 120 nM

B13: peptide 862-b (peptide)
peptide: VPKGFRFHEMSYS
modifications: N-terminal acetyl (Ac); C-terminal amide; D-isomers at all residues except Gly 4
Question: Which Ki [1] does the source give for B13 here?
Answer: 128 nM

B14: peptide 890 (peptide)
peptide: VPKGWRXHEXSYS
modifications: N-terminal acetyl (Ac); C-terminal amide; D-Cha at 7; D-buthionine at 10; D-isomers at all residues except Gly 4
Question: Which results are given for B14?
Answer: Ki [3]: 15 µM; Ki [1]: 1.9 nM; Ki [4]: 4.5 µM; Ki [5]: 14 µM

B15: peptide 872 (peptide)
peptide: VPKGWRFREMSYS
modifications: N-terminal acetyl (Ac); C-terminal amide; D-isomers at all residues except Gly 4
Question: With B15 as the binder, how does the Ki [1] read?
Answer: 13.5 nM

B16: peptide 886 (peptide)
peptide: Ac-[dV][dP][dK]G[dW][dR][dF][dH][dS][dI][dI][dS][dS]-NH2
SMILES: CC[C@@H](C)[C@@H](NC(=O)[C@@H](CO)NC(=O)[C@@H](Cc1c[nH]cn1)NC(=O)[C@@H](Cc1ccccc1)NC(=O)[C@@H](CCCNC(=N)N)NC(=O)[C@@H](Cc1c[nH]c2ccccc12)NC(=O)CNC(=O)[C@@H](CCCCN)NC(=O)[C@H]1CCCN1C(=O)[C@H](NC(C)=O)C(C)C)C(=O)N[C@@H](C(=O)N[C@H](CO)C(=O)N[C@H](CO)C(N)=O)[C@H](C)CC
Question: How did the Ki [3] turn out when B16 was run?
Answer: 19 µM

Question: And the Ki [1]?
Answer: 1 nM

Question: What about the Ki [4] of the same binder?
Answer: 20 µM

Question: What about the Ki [5] of the same binder?
Answer: 10 µM

B17: peptide 867 (peptide)
peptide: VPKGWRXHEMSYS
modifications: N-terminal acetyl (Ac); C-terminal amide; 3-pyridyl-D-Alanine at 7; D-isomers at all residues except Gly 4
Question: For B17, which Ki [1] is on record?
Answer: 480 nM

B18: peptide 847int (peptide)
peptide: H-[dV][dP][dK]G[dW][dR][dF][dH]-OH
SMILES: CC(C)[C@@H](N)C(=O)N1CCC[C@@H]1C(=O)N[C@H](CCCCN)C(=O)NCC(=O)N[C@H](Cc1c[nH]c2ccccc12)C(=O)N[C@H](CCCNC(=N)N)C(=O)N[C@H](Cc1ccccc1)C(=O)N[C@H](Cc1c[nH]cn1)C(=O)O
Question: With B18 as the binder, how does the Ki [1] read?
Answer: 150 nM

B19: peptide 812 (peptide)
peptide: VPKGARFHEMSYS
modifications: N-terminal acetyl (Ac); C-terminal amide; D-isomers at all residues except Gly 4
Question: Which Ki [1] does the source give for B19 here?
Answer: 3000 nM

B20: peptide 858 (peptide)
peptide: VPXGWRFHEMSYS
modifications: N-terminal acetyl (Ac); C-terminal amide; D-Norleucine at 3; D-isomers at all residues except Gly 4
Question: Which Ki [1] does the source give for B20 here?
Answer: 18 nM

B21: peptide 879 (peptide)
peptide: VPKGWRFHEKSYS
modifications: N-terminal acetyl (Ac); C-terminal amide; D-isomers at all residues except Gly 4
Question: With B21 as the binder, how does the Ki [1] read?
Answer: 832 nM

B22: peptide 869 (peptide)
peptide: VPKGWRXHEMSYS
modifications: N-terminal acetyl (Ac); C-terminal amide; D-cyclohexylalanine (D-Cha) at 7; D-isomers at all residues except Gly 4
Question: With B22 as the binder, how does the Ki [1] read?
Answer: 2.2 nM

Question: And the Ki [4]?
Answer: 25 µM

B23: peptide 809 (peptide)
peptide: VPKGWRFAEMSYS
modifications: N-terminal acetyl (Ac); C-terminal amide; D-isomers at all residues except Gly 4
Question: Which Ki [1] does the source give for B23 here?
Answer: 1200 nM

B24: peptide 807 (peptide)
peptide: VPKGWRFHEASYS
modifications: N-terminal acetyl (Ac); C-terminal amide; D-isomers at all residues except Gly 4
Question: With B24 as the binder, how does the Ki [1] read?
Answer: 1400 nM

B25: peptide 847 (peptide)
peptide: H-[dV][dP][dK]G[dW][dR][dF][dH]-{NH(CH2)3Ph}
SMILES: CC(C)[C@@H](N)C(=O)N1CCC[C@@H]1C(=O)N[C@H](CCCCN)C(=O)NCC(=O)N[C@H](Cc1c[nH]c2ccccc12)C(=O)N[C@H](CCCNC(=N)N)C(=O)N[C@H](Cc1ccccc1)C(=O)N[C@H](Cc1c[nH]cn1)C(=O)NCCCc1ccccc1
Question: Which results are given for B25?
Answer: Ki [6]: 150 nM; Ki [1]: 104 nM

B26: peptide 873 (peptide)
peptide: VPKGWRFWEMSYS
modifications: N-terminal acetyl (Ac); C-terminal amide; D-isomers at all residues except Gly 4
Question: Which Ki [1] does the source give for B26 here?
Answer: 1900 nM

B27: peptide 860 (peptide)
peptide: VPKGXRFHEMSYS
modifications: N-terminal acetyl (Ac); C-terminal amide; 5-hydroxy-D-Trp at 5; D-isomers at all residues except Gly 4
Question: Which Ki [1] does the source give for B27 here?
Answer: 96 nM

B28: peptide 877 (peptide)
peptide: VPKGWRFHEXSYS
modifications: N-terminal acetyl (Ac); C-terminal amide; α-methyl-D-Met at 10; D-isomers at all residues except Gly 4
Question: For B28, which Ki [1] is on record?
Answer: 282 nM

B29: peptide 875 (peptide)
peptide: VPKGWRFHDMSYS
modifications: N-terminal acetyl (Ac); C-terminal amide; D-isomers at all residues except Gly 4
Question: With B29 as the binder, how does the Ki [1] read?
Answer: 400 nM
